Assay results as given in publication PMC11048174.

How the values were obtained:
[1] = target: Avidin (obtained from egg white) (UniProt P02701); test: SPR; MWCNT-Av deposited on a gold disk; 0.50 mg mL^-1 bLOx or LOx injected manually, batch conditions, 25 °C; amount from the change of the resonance angle after washing with phosphate buffer
[2] = target: Avidin (obtained from egg white) (UniProt P02701); test: electrochemical impedance spectroscopy; MWCNT-Av on glassy carbon electrode, incubated with bLOx or LOx; charge transfer resistance of hydroquinone/benzoquinone at 0.050 V, 0.050 M phosphate buffer pH 7.40

Chain of UniProt P02701 (P02701 25-152): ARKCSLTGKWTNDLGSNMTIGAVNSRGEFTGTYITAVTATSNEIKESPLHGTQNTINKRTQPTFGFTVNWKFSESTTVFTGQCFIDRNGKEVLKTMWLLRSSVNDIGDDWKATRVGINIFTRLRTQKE

## recombinant biotinylated lactate oxidase (enzyme)
[1]
  amount immobilised (from the SPR angle change): 2600 pg mm^−2
[2]
  RCT (charge transfer resistance) after interaction: 200 Ω
